Source: patent US20170342155A1 (Amgen, published 2017)

How the values were obtained:
Test in all cases: flow cytometry on transfected 293T cells, PE secondary antibody, geo mean
[1] = target: T1, human CCR7 variant D35E (20100122625) (human, UniProt P32248 25-378)
T1 construct: Human CCR7 with the murine residue at position 35; also called D35 variant
T1 sequence: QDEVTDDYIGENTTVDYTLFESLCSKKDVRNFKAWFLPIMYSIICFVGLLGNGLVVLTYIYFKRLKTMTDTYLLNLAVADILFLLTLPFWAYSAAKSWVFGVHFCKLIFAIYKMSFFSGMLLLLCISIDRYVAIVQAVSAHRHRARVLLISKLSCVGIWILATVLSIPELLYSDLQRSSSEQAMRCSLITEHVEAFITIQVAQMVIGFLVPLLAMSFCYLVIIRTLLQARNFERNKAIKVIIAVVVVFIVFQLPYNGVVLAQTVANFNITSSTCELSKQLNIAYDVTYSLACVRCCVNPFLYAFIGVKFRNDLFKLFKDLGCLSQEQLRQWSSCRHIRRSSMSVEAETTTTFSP

[2] = target: T2, human CCR7 variant A118E (20100130760) (human, UniProt P32248 25-378)
T2 sequence: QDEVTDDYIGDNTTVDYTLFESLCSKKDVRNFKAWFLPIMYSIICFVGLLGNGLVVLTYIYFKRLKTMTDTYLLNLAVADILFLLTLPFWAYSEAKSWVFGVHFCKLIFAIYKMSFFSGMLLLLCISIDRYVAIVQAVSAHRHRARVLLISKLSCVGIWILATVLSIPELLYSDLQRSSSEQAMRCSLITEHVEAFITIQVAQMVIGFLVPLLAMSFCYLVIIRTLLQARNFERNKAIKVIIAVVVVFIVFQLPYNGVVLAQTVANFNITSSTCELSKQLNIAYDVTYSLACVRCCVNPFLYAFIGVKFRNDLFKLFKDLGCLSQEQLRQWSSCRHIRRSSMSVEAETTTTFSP

[3] = target: T3, human CCR7 variant H127Y (20100135009) (human, UniProt P32248 25-378)
T3 sequence: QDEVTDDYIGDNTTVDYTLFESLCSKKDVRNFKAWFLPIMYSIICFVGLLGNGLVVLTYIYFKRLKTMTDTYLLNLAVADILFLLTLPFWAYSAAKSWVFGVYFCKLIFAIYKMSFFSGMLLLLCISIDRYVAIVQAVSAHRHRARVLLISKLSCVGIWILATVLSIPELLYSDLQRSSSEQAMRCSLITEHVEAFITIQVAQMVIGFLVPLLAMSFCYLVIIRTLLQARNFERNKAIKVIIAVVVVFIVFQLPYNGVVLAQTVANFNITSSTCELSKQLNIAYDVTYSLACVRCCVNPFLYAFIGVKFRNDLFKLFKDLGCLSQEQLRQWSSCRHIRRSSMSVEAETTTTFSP

[4] = target: T4, human CCR7 variant S202N (20110009483) (human, UniProt P32248 25-378)
T4 sequence: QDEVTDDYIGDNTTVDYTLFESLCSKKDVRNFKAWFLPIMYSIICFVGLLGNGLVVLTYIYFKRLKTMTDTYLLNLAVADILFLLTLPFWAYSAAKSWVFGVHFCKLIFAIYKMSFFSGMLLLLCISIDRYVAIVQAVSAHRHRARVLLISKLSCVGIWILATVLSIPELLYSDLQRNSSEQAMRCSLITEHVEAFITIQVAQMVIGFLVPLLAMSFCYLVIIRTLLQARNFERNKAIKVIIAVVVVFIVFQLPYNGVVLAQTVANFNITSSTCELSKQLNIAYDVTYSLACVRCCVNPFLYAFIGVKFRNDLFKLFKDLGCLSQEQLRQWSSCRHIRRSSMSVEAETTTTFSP

[5] = target: T5, human CCR7 variant A207T (20100171270) (human, UniProt P32248 25-378)
T5 sequence: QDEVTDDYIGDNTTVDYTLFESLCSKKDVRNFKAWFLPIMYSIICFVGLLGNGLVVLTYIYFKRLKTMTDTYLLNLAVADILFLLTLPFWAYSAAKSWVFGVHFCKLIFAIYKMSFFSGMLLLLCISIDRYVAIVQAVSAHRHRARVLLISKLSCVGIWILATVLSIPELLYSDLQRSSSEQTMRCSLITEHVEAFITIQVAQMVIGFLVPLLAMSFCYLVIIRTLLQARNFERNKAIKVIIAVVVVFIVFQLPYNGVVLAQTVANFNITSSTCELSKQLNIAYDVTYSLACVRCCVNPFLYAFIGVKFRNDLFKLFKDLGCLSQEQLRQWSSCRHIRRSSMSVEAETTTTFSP

[6] = target: T6, human CCR7 variant S295N (20110018205) (human, UniProt P32248 25-378)
T6 sequence: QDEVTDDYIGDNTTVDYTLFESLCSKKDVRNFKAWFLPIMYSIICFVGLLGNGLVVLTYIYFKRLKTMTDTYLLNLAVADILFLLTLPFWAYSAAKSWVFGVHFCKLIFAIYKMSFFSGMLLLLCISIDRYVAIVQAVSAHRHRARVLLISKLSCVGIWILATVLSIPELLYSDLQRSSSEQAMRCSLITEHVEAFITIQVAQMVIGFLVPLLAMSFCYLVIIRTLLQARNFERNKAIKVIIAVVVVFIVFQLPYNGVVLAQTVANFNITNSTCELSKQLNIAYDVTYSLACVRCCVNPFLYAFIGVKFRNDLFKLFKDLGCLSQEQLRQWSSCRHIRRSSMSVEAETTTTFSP

[7] = target: T7, human CCR7 variant L300T (20110018204) (human, UniProt P32248 25-378)
T7 sequence: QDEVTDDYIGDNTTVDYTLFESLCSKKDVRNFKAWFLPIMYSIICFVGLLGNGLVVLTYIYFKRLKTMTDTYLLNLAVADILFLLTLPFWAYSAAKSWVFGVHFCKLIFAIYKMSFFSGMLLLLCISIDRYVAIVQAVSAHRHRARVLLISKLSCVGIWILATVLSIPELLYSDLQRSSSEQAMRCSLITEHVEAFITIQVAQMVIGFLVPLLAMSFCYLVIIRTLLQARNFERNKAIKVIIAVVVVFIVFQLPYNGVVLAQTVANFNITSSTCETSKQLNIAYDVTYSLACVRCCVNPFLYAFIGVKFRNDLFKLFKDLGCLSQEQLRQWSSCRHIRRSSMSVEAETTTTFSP

Measured: binding result

B1: antibody 6B4.1 (antibody, V domains shown)
VH: QVQLVESGGGVVQPGRSLRLSCAASGFTFSSYGMHWVRQAPGKGLEWVAVIWYDGSKKYYADSVKGRFTISRDNSKNTLYLQMNRLRAEDTAVYYCARDGGIAVFLQDNWFDPWGQGTLVTVSS
VL: SYELTQPPSVSVSPGQRARITCSGDKLGDKYASWYQQKPGQSPLLVIYQDSKRPSGIPERFSGSNSGNTATLTISGTQAMDEADYYCQAWGSSTVIFGGGTKLTVLG
notes: Human antibody from XenoMouse hybridoma; Light = 2 and heavy = 42 is inferred from the order of the listing (light chains first)
binds: all assays above

B2: antibody 6B5.1 (antibody, human IgG2, lambda, V domains shown)
VH: QVQLVESGGGVVQPGRSLRLSCAASGFTFRSYGMHWVRQAPGKGLEWVAVIWYDGSKKYYADSVKGRFTISRDNSKNTLYLQMNRLRAEDTAVYYCARDGGIAVFLEDNWFDPWGQGTLVTVSS
VL: SYELTQPPSVSVSPGQRASITCSGDKLGDKYASWYQQKPGQSPLLVIYQDGKRPSGIPERFSGSNSGNTATLTISGTQAMDEADYYCQAWGSSTVIFGGGTKLTVLG
notes: Human antibody from XenoMouse hybridoma; Light = 18 and heavy = 50 is inferred from the order of the listing
binds: all assays above
